Data on 1 molecule can be found in PMC11109247.

The target of test [1] is T1, sF ectodomain (Nipah henipavirus), Q9IH63.
T1 chain: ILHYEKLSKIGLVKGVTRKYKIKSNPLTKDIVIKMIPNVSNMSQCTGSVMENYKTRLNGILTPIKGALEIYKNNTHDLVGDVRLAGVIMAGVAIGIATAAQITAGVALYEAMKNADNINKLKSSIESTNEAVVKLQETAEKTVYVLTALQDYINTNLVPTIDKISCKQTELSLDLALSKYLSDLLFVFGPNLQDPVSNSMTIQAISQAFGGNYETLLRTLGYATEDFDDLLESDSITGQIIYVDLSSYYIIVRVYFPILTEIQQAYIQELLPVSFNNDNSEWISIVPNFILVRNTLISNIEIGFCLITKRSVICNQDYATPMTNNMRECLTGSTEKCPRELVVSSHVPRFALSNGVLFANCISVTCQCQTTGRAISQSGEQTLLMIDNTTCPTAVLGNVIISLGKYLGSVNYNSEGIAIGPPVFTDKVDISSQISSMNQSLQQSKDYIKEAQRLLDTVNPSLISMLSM
Briefly: BLI. To be noted: modification not given.

The target of test [2] is T1, sF ectodomain (Nipah henipavirus), …. Put plainly: MST. To be noted: modification not given.

B1: P-59 peptide peptide P-59, Q9IH62 (peptide)
chain: HECNISCPNPLPFREYRPQTEGV
As a reminder, the Kd is the constant that tells how readily two partners part at equilibrium. As for B1, the Kd in test [1] amounted to 0.19 µM; in test [2] it was 5 µM.
